The values below come from patent KR20230163144A.

The labels stand for the following.
B1: WM-A1-3128 (antibody, V domains shown)
VH: QVQLVESGGGVVQPGKSLRLSCAASGFSLRTYGMHWVRQAPGKGLEWVANIWHDGSHTFYADSVQGRFTVSRDNSANLLFLQMNSLRAEDTAVYYCARGGSYSRYSDAFDIWGQGTVITVSS
VL: DIQMTQSPGTLSLSPGERATLSCRASQSVSSSYLAWYQQKPGQAPRLLIYDASNRATGIPARFSGTGSGTDFTLTISSLEPEDFAVYYCQQRSNWPLTFGGGTKVEIK
B2: WM-A1-3102 (antibody, V domains shown)
VH: QMQLVQSGAEVKKPGSSVKVSCKASGGTFSSYAISWVRQAPGQGLEWMGGIIPVLGATNYAQRFQGRVTMTADESTTTAYMELSGLRSEDTAVYYCARGRSWGFDYWGHGTLITVSS
VL: DIVMTQTPLSLPVTPGQPASISCKSSQSLLHSDGNTYLDWYLQKPGQSPQLLIYTLSHRASGVPDRFSGSGSGTDFTLKISRVEADDVGLYYCMQRIEFPYTFGQGTKVEIK
B3: WM-A1-2608 (antibody, V domains shown)
VH: QVQLVQSGGGLVQPGGSLRLSCEASGFAFRRYEMNWVRQTPGKGLEWIAYINSGGSVKVYADSVKGRFAISRNDSKNSLYLQMNSLRAEDTAVYYCARAGNAFGTFDYWGQGTLVTVSS
VL: DIQMTQSPSSVSASVGDRVTITCRASQDISRWLAWYQQKPGKAPKRLMYAASVLDVGVPSRFSGSGSGTDFTLTISNLQPEDFATYYCQQPISFPLTFGGGTKVDIK
B4: WM-A1-2613 (antibody, V domains shown)
VH: QVQLQESGPGLVKPSGTLSLTCAVSGDSVISTDWWSWVRQPPGKELEWIGEIHHSGSTNYNPSLEGRVTISVDKSKNQFSLKLTSVTAVDTAVYYCSRGSGGRDAFDVWGQGTMITVSS
VL: QSALTQPPSSSGTPGQKVTISCSGSMSNIGGNYVSWYQQVPGTAPKLLIFKTNQGAAGVPDRFVGSKSGTSASLVISGLRPEDEATYYCASWDDIGDGPTWVFGGGTKLTVL
B5: WM-A1-3133 (antibody, V domains shown)
VH: QMQLVQSGGKLVQPGSSLRLSCAASGFSFDDYGMSWVRQAPGKGLEWVSAISGSGGSTYYADSVKGRFTISRDNSKNTLYLQMNSLRAEDTAVYYCARGGRVYGMDVWGQGTTVTVSS
VL: DIQMTQSPSSVSASVGDTVTITCRASHDIRRWLAWYQQKPGEVPKVLIYAAAVLHSGVPSRFSGSGSGTDFSLTITNLQPEDVATYYCQKYDSVPFTFGGGTKLEIK
B6: WM-A1-3105 (antibody, V domains shown)
VH: QMQLVQSGAEVKRPGSSVKVSCKASGRSTYNYAFYWVRQAPGHGLEWMGGIIPIFGATNYAQKFQGRVTITADESTNTAYMEVTNLRSEDTAVYYCAKGSGNYYYGMDVWGQGTTVTVSS
VL: DIQMTQSPSSVSASVGDRVTITCRASQSVGTWLAWYQQKPGRAPKLLISAASSLHPGVPSRFSGSGSGTDFTLTISSLQPEDFATYYCQQADSFPYTFGQGTKLEIK
B7: WM-A1-3106 (antibody, V domains shown)
VH: QVQLVESGGGVVPPGGSVRLSCAASGFTFGDYAMHWVRQAPGKGLEWVSLISGDGGTTYYGDSVKGRYTISRDNSKNSLYLQMNSLRAEDTAVYYCARGGRVYGMDVWGQGTTVTVSS
VL: DIQMTQSPSSLSASVGNRVTITCRASQGISVWLAWFQQKPETAPKSLIYGSSNLQSGVPSRFSGSGSGTDFTLTINNLQPEDFATYYCQQYKASPPTFGGGTKVDIK

For this assay, the target named is IGSF1 항원 (IGSF1 카복시 말단 도메인의 세포외 도메인 - 인간 Fc - his tag 융합 단백질) (human) (UniProt Q8N6C5). In words: ELISA; human IGSF1 antigen diluted 1/3 from 100 nM to 0.046 nM; fit in GraphPad Prism 6.
For the molecule B1, the dissociation constant Kd was 27.2 nM.

On to B2, for which the Kd came out at 18.8 nM.

For the molecule B3, the Kd is 0.097 nM. For B4, the dissociation constant Kd came to 0.1 nM.

B5: the Kd was found to be 300 nM.

B6 yielded a Kd of 29.5 nM. In the case of B7 it was 20.8 nM.

Usually Kd stands for the equilibrium constant for the complex coming apart. High values mean weaker binding, low ones tighter binding.
